Results published in patent publication US7192728B2, “Screening assays for agents that alter inhibitor of apoptosis (IAP) protein regulation of caspase activity” (The Burnham Institute, priority 1997, dated 2007).

What was measured:
[1] = system: DEVD-pNA hydrolysis activity in 293 cell cytosolic extracts; experiment: Cytochrome c/dATP-induced caspase activation (DEVD hydrolysis) in 293 cell cytosolic extracts; type: biochemical, human; details: for DEVD-pNA hydrolysis, ΔA405 after 15 min: 293 extracts + cytochrome c/dATP, GST-XIAP 0.2 μM, GST controls 2 μM, His6-S5a 5 μM, untreated ≈0.01
Protocol: (§1) Cells were washed with ice cold buffer A (20 mM Hepes (pH 7.5), 10 mM KCl, 1.5 mM MgCl2, 1 mM EDTA, 1 mM DTT and 0.1 mM PMSF) and suspended in 1 vol buffer A, then incubated on ice for 20 min. 293 cells were disrupted by passage 15× through a 26 gauge needle and Jurkat T cells were disrupted by dounce homogenization in 2 ml using 15 strokes with a pestle B. Cell extracts (10–15 mg total protein/ml) were clarified by centrifugation at 16,000×g for 30 min, then the NaCl concentration was increased by 50 mM. Cytosolic fractions were used immediately or stored frozen at −80° C.
(§2) Caspase activity was assayed by release of either 7-amino-4-trifluoromethyl-coumarin (AFC) or p-nitroanilide (pNA) from benzylyoxycarbonyl-DEVD (SEQ ID NO: 2) or benzylyoxycarbonyl-YVAD (SEQ ID NO: 3) synthetic peptides using a Molecular Devices Spectromax 340 for AFC labeled peptides or Perkin/Elmer LS50B for pNA labeled peptides (see Example II; see, also, Zhou et al., supra, 1997). Cytosolic extracts from 293 cells or Jurkat T cells were used directly (negative control) or were treated with 1 μM cytochrome c and 1 mM dATP or with cytochrome c, dATP and 0.2 μM GST-XIAP. Additional control reactions were performed by substituting 2 μM GST-Bcl-2, GST-Bax, GST-NM23 or GST-CD40 cytosolic domain, or 5 μM His6-S5a protein for GST-XIAP. DEVD-pNA hydrolysis was measured at various times and multiple experiments were performed using several different GST-XIAP preparations.

[2] = system: DEVD-pNA hydrolysis activity in Jurkat T cell cytosolic extracts; experiment: Cytochrome c/dATP-induced caspase activation (DEVD-pNA hydrolysis) in Jurkat T cell cytosolic extracts; type: biochemical; details: for DEVD-pNA hydrolysis, ΔA405 after 15 min: untreated ≈0.02; for DEVD-pNA hydrolysis, ΔA405 after 20 min: untreated ≈0.025
Protocol: as §1, §2

caspase-3 [3] = target: T1, caspase-3 (Homo sapiens, UniProt P42574); experiment: GST pull-down binding to caspase-3; details: glutathione-Sepharose beads, immunoblot
T1 construct: to produce the 17–20 kDa mature, fully processed large subunit of the active caspase-3 enzyme; a smaller, fully processed, subunit of about 11 kDa; His6; made in house; host or cells: E. coli BL21(DE3)pLysS
T1 sequence (P42574 29-175 limits assumed): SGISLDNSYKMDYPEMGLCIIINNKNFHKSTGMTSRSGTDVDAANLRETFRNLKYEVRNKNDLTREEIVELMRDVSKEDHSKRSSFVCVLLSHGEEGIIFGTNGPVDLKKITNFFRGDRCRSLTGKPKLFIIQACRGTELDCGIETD
T1 sequence (P42574 176-277 limits assumed): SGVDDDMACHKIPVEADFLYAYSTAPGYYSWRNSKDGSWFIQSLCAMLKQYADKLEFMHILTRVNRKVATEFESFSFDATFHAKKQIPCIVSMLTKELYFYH
Protocol: (§3) Following incubation at 4° C. for 60 min, the beads were removed by centrifugation and washed twice with 100 vol 50 mM Tris (pH 7.5), 150 mM KCl, 2 mM DTT and 0.025% Triton-X100, then subjected to SDS-PAGE and immunoblot assay (see Example I.B.3).

caspase-7 [4] = target: T2, caspase-7 (Homo sapiens, UniProt P55210); experiment: GST pull-down binding to caspase-7; details: glutathione-Sepharose beads, immunoblot
T2 construct: Purified active caspase concentrations ranged from 0.1 nM to 10 nM; His6; made in house; host or cells: E. coli BL21(DE3)pLysS
T2 sequence (P55210 24-198 limits assumed): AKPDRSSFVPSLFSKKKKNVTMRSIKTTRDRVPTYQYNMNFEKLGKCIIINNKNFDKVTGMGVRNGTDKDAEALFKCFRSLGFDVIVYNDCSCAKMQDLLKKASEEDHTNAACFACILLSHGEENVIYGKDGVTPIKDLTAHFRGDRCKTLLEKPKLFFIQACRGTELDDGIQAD
T2 sequence (P55210 207-303 limits assumed): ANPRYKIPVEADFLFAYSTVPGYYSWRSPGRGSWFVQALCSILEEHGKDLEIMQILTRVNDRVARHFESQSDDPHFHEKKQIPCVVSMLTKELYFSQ
Protocol: as §3

caspase-7 [5] = target: T2, caspase-7; experiment: Inhibition of purified recombinant caspase-7, DEVD substrate hydrolysis and progress curves; type: biochemical; details: DEVD-pNA hydrolysis
Protocol: Purified recombinant caspase-1, caspase-3, caspase-6, caspase-7 or caspase-8 were incubated with DEVD-pNA, either alone or with a 10-fold to 50-fold molar excess of GST-XIAP (20 μM) and substrate hydrolysis was measured. Purified active caspase concentrations ranged from 0.1 nM to 10 nM. XIAP concentration ranged from 0.1 nM to 500 nM. Assays were performed in caspase buffer (50 mM Tris, pH 7.4, 100 mM NaCl, 10% sucrose, 5–10 mM DTT, 1 mM EDTA and 0.1% CHAPS).

caspase-3 [6] = target: T1, caspase-3; experiment: Inhibition of purified recombinant caspase-3, DEVD substrate hydrolysis and progress curves; type: biochemical; details: DEVD-pNA hydrolysis
Protocol: Purified recombinant caspase-1, caspase-3, caspase-6, caspase-7 or caspase-8 were incubated with DEVD-pNA, either alone or with a 10-fold to 50-fold molar excess of GST-XIAP ([…]) and substrate hydrolysis was measured. Purified active caspase concentrations ranged from 0.1 nM to 10 nM. XIAP concentration ranged from 0.1 nM to 500 nM. Assays were performed in caspase buffer (50 mM Tris, pH 7.4, 100 mM NaCl, 10% sucrose, 5–10 mM DTT, 1 mM EDTA and 0.1% CHAPS).
Equilibria were determined from progress curves when substrate hydrolysis reached a steady-state; slopes were calculated by curve fit analysis using the cricket graph program. Experiments were performed using purified recombinant caspase-3, caspase-6, or caspase-7. DEVD-AFC hydrolysis was measured using 0.1 nM caspase and a range of concentrations (0.2 to 12 μM) of recombinant XIAP (rXIAP). […] Average ratio velocities (vi/vo, where “vi” indicates presence of GST-XIAP and “vo” indicates absence of GST-XIAP) were determined.
Caspase activity was determined essentially as described in Example II, using the benzylyoxycarbonyl-DEVD-AFC (SEQ ID NO: 2) substrate and was assayed at 37° C. using the Perkin-Elmer LS50B fluorometric plate reader in the kinetic mode with excitation and emission wavelengths of 400 nm and 505 nm, respectively. […] Reactions were performed in caspase buffer (50 mM Hepes, 100 mM NaCl, 1 mM EDTA, 0.1% CHAPS, 10% sucrose, 5 mM DTT). The inhibition constant, Ki, was calculated as described (Zhou et al., supra, 1997). Immunoblot analysis was performed as described in Example I.B.3.

[7] = listed as GST-fusion containing the RING domain

GST-Bax: recombinant control protein, GST fusion of Bax [reference compound]
DEVD-pNA hydrolysis, ΔA405 after 15 min [1]: ≈ 0.1 | DEVD-pNA hydrolysis, ΔA405 after 15 min [2]: ≈ 0.09 | DEVD-pNA hydrolysis, ΔA405 after 20 min [2]: ≈ 0.1

B1: c-IAP-1(BIR): construct comprising the BIR domains of c-IAP-1 (positions 1 to 350) (protein)
chain: MHKTASQRLFPGPSYQNIKSIMEDSTILSDWTNSNKQKMKYDFSCELYRMSTYSTFPAGVPVSERSLARAGFYYTGVNDKVKCFCCGLMLDNWKLGDSPIQKHKQLYPSCSFIQNLVSASLGSTSKNTSPMRNSFAHSLSPTLEHSSLFSGSYSSLSPNPLNSRAVEDISSSRTNPYSYAMSTEEARFLTYHMWPLTFLSPSELARAGFYYIGPGDRVACFACGGKLSNWEPKDDAMSEHRRHFPNCPFLENSLETLRFSISNLSMQTHAARMRTFMYWPSSVPVQPEQLASAGFYYVGRNDDVKCFCCDGGLRCWESGDDPWVEHAKWFPRCEFLIRMKGQEFVDEIQG
modifications: left off: a dimerising Fc or GST
DEVD hydrolysis in activated 293 cell cytosolic extracts (in words) ([1]; 3 μM, extracts activated 30 min with cytochrome c and dATP): inhibited DEVD hydrolysis | binding of caspase-3 (in words) (caspase-3 [3]): bound | binding of caspase-7 (in words) (caspase-7 [4]): bound

B2: NAIP: neuronal apoptosis inhibitory protein, GST construct (protein, UniProt Q13075 1-1403, looked up)
Baculoviral IAP …: MATQQKASDERISQFDHNLLPELSALLGLDAVQLAKELEEEEQKERAKMQKGYNSQMRSEAKRLKTFVTYEPYSSWIPQEMAAAGFYFTGVKSGIQCFCCSLILFGAGLTRLPIEDHKRFHPDCGFLLNKDVGNIAKYDIRVKNLKSRLRGGKMRYQEEEARLASFRNWPFYVQGISPCVLSEAGFVFTGKQDTVQCFSCGGCLGNWEEGDDPWKEHAKWFPKCEFLRSKKSSEEITQYIQSYKGFVDITGEHFVNSWVQRELPMASAYCNDSIFAYEELRLDSFKDWPRESAVGVAALAKAGLFYTGIKDIVQCFSCGGCLEKWQEGDDPLDDHTRCFPNCPFLQNMKSSAEVTPDLQSRGELCELLETTSESNLEDSIAVGPIVPEMAQGEAQWFQEAKNLNEQLRAAYTSASFRHMSLLDISSDLATDHLLGCDLSIASKHISKPVQEPLVLPEVFGNLNSVMCVEGEAGSGKTVLLKKIAFLWASGCCPLLNRFQLVFYLSLSSTRPDEGLASIICDQLLEKEGSVTEMCVRNIIQQLKNQVLFLLDDYKEICSIPQVIGKLIQKNHLSRTCLLIAVRTNRARDIRRYLETILEIKAFPFYNTVCILRKLFSHNMTRLRKFMVYFGKNQSLQKIQKTPLFVAAICAHWFQYPFDPSFDDVAVFKSYMERLSLRNKATAEILKATVSSCGELALKGFFSCCFEFNDDDLAEAGVDEDEDLTMCLMSKFTAQRLRPFYRFLSPAFQEFLAGMRLIELLDSDRQEHQDLGLYHLKQINSPMMTVSAYNNFLNYVSSLPSTKAGPKIVSHLLHLVDNKESLENISENDDYLKHQPEISLQMQLLRGLWQICPQAYFSMVSEHLLVLALKTAYQSNTVAACSPFVLQFLQGRTLTLGALNLQYFFDHPESLSLLRSIHFPIRGNKTSPRAHFSVLETCFDKSQVPTIDQDYASAFEPMNEWERNLAEKEDNVKSYMDMQRRASPDLSTGYWKLSPKQYKIPCLEVDVNDIDVVGQDMLEILMTVFSASQRIELHLNHSRGFIESIRPALELSKASVTKCSISKLELSAAEQELLLTLPSLESLEVSGTIQSQDQIFPNLDKFLCLKELSVDLEGNINVFSVIPEEFPNFHHMEKLLIQISAEYDPSKLVKLIQNSPNLHVFHLKCNFFSDFGSLMTMLVSCKKLTEIKFSDSFFQAVPFVASLPNFISLKILNLEGQQFPDEETSEKFAYILGSLSNLEELILPTGDGIYRVAKLIIQQCQQLHCLRVLSFFKTLNDDSVVEIAKVAISGGFQKLENLKLSINHKITEEGYRNFFQALDNMPNLQELDISRHFTECIKAQATTVKSLSQCVLRLPRLIRLNMLSWLLDADDIALLNVMKERHPQSKYLTILQKWILPFSPIIQK
modifications: GST tag
binding of caspase-3 (in words) (caspase-3 [3]): bound | binding of caspase-7 (in words) (caspase-7 [4]): bound

B3: GST fusion protein containing only the three BIR domains of XIAP: GST fusion of XIAP amino acids 1–337 (three BIR domains) (protein, UniProt P98170 1-337, looked up, fragment)
chain: MTFNSFEGSKTCVPADINKEEEFVEEFNRLKTFANFPSGSPVSASTLARAGFLYTGEGDTVRCFSCHAAVDRWQYGDSAVGRHRKVSPNCRFINGFYLENSATQSTNSGIQNGQYKVENYLGSRDHFALDRPSETHADYLLRTGQVVDISDTIYPRNPAMYSEEARLKSFQNWPDYAHLTPRELASAGLYYTGIGDQVQCFCCGGKLKNWEPCDRAWSEHRRHFPNCFFVLGRNLNIRSESDAVSSDRNFPNSTNLPRNPSMADYEARIFTFGTWIYSVNKEQLARAGFYALGEGDKVKCFHCGGGLTDWKPSEDPWEQHAKWYPGCKYLLEQKGQE
modifications: GST fusion
inhibition of caspase-7 in vitro (in words) (caspase-7 [5]): potently inhibited | inhibition of caspase-3 in vitro (in words) (caspase-3 [6]): potently inhibited

B4: GST fusion protein containing the RING domain: GST fusion of XIAP amino acids 338–497 (RING domain) (protein, UniProt P98170 338-497, looked up, fragment)
chain: YINNIHLTHSLEECLVRTTEKTPSLTRRIDDTIFQNPMVQEAIRMGFSFKDIKKIMEEKIQISGSNYKSLEVLVADLVNAQKDSMQDESSQTSLQKEISTEEQLRRLQEEKLCKICMDRNIAIVFVPCGHLVTCKQCAEAVDKCPMCYTVITFKQKIFMS
modifications: GST fusion
inhibition of caspase-7 in vitro (in words) (caspase-7 [5]): had no effect | inhibition of caspase-7 in vitro (in words) (caspase-7 [5]; [7]): no significant effect | inhibition of caspase-3 in vitro (in words) (caspase-3 [6]): had no effect | inhibition of caspase-3 in vitro (in words) (caspase-3 [6]; [7]): no significant effect

B5: His6-S5a: recombinant control protein, His6-S5a proteasome subunit (protein, UniProt P55036 1-377, looked up)
26S proteasome non-ATPase …: MVLESTMVCVDNSEYMRNGDFLPTRLQAQQDAVNIVCHSKTRSNPENNVGLITLANDCEVLTTLTPDTGRILSKLHTVQPKGKITFCTGIRVAHLALKHRQGKNHKMRIIAFVGSPVEDNEKDLVKLAKRLKKEKVNVDIINFGEEEVNTEKLTAFVNTLNGKDGTGSHLVTVPPGPSLADALISSPILAGEGGAMLGLGASDFEFGVDPSADPELALALRVSMEEQRQRQEEEARRAAAASAAEAGIATTGTEDSDDALLKMTISQQEFGRTGLPDLSSMTEEEQIAYAMQMSLQGAEFGQAESADIDASSAMDTSEPAKEEDDYDVMQDPEFLQSVLENLPGVDPNNEAIRNAMGSLASQATKDGKKDKKEEDKK
modifications: His6 tag
notes: recombinant control protein, His6-S5a proteasome subunit
DEVD-pNA hydrolysis, ΔA405 after 15 min [1]: ≈ 0.1 | DEVD-pNA hydrolysis, ΔA405 after 15 min [2]: ≈ 0.09 | DEVD-pNA hydrolysis, ΔA405 after 20 min [2]: ≈ 0.1
